Where only a bound is given, the exact number is not on record here.

Test [1] deals with T1, HA-1^R (minor histocompatibility antigen 1, HMHA1 gene, R allele) peptide on HLA-A*02:01 (human).
T1 peptide: VLRDDLLEA
Nature of the test: cytokine release.

Test [2] deals with T2, Astn1 P1268L (control peptide) peptide on HLA-A*02:01 (human).
T2 peptide: KLYGLDWAEL
As to the kind of experiment: cytokine release.

The target in test [3] is T3, HA-1^H (minor histocompatibility antigen 1, HMHA1 gene, H allele) peptide on HLA-A*02:01 (human).
T3 peptide: VLHDDLLEA
Nature of the test: multimer staining. The text has this: Transduced CD8 T cells were enriched by FACS using the murine constant beta region as a marker for transduction. After expansion of these cells, they were stained with an HA-1^H-MHC-multimer and antibodies against CD8 and the murine constant beta region (mCb) and analyzed by flow cytometry.
The nucleotide sequences of the isolated TCRs were codon optimized using the GeneOptimizer™ algorithm (ThermoFisher) and the constant regions were murinized. Codon optimized and murinized TCRs were used for all further experiments described herein. They were stained with an HA-1^H-MHC-multimer (immunAware) and antibodies against CD8 and the murine constant beta region. […] (FIG. 1)

For test [4], the target named is HA-1^R-peptide (…) loaded on HLA-A*02:01 encoded molecules on T2 cells (human). Nature of the test: cell-based or functional assay.
The target in test [5] is T3, HA-1^H (minor histocompatibility …). Nature of the test: killing.

B1: TCR_2 (TCR, V domains shown)
Valpha: GENVEQHPSTLSVQEGDSAVIKCTYSDSASNYFPWYKQELGKGPQLIIDIRSNVGEKKDQRIAVTLNKTAKHFSLHITETQPEDSAVYFCAAHTPGYSTLTFGKGTMLLVSP
Vbeta: DTGVSQNPRHKITKRGQNVTFRCDPISEHNRLYWYRQTLGQGPEFLTYFQNEAQLEKSRLLSDRFSAERPKGSFSTLEIQRTEQGDSAMYLCASSPRAGGETQYFGPGTRLLVL
Consider B1, for which the binding result is reported as “no recognition” in test [1], “no recognition” in test [2] and “recognises” in test [3].

B2: TCR_1, P01849 1-136 (TCR, not shown: a dimerising Fc or GST)
TCR alpha: GENVEQHPSTLSVQEGDSAVIKCTYSDSASNYFPWYKQELGKGPQLIIDIRSNVGEKKDQRIAVTLNKTAKHFSLHITETQPEDSAVYFCAASDLNFGKGTSLLVTPHIQNPEPAVYQLKDPRSQDSTLCLFTDFDSQINVPKTMESGTFITDKTVLDMKAMDSKSNGAIAWSNQTSFTCQDIFKETNATYPSSDVPCDATLTEKSFETDMNLNFQNLSVMGLRILLLKVAGFNLLMTLRLWSS
TCR beta: DTGVSQNPRHKITKRGQNVTFRCDPISEHNRLYWYRQTLGQGPEFLTYFQNEAQLEKSRLLSDRFSAERPKGSFSTLEIQRTEQGDSAMYLCASSLVSRVDGYTFGSGTRLTVVE
In test [4], B2 came in with a peptide concentration needed for recognition (IFN-γ release), relative to HA-1^H of over 10000 times.

B3: TCR_3 (TCR, V domains shown)
Valpha: SQQGEEDPQALSIQEGENATMNCSYKTSINNLQWYRQNSGRGLVHLILIRSNEREKHSGRLRVTLDTSKKSSSLLITASRAADTASYFCATGDQTGANNLFFGTGTRLTVIP
Vbeta: DTGVSQNPRHKITKRGQNVTFRCDPISEHNRLYWYRQTLGQGPEFLTYFQNEAQLEKSRLLSDRFSAERPKGSFSTLEIQRTEQGDSAMYLCASSLTRTEKLFFGSGTQLSVL
As for B3, the binding result in test [2] was “no recognition”; in test [3], “recognises”.

B4: TCR_5 (TCR, V domains shown)
Valpha: TQLLEQSPQFLSIQEGENLTVYCNSSSVFSSLQWYRQEPGEGPVLLVTVVTGGEVKKLKRLTFQFGDARKDSSLHITAAQTGDTGLYLCAGAGNNDMRFGAGTRLTVKP
Vbeta: DTGVSQNPRHKITKRGQNVTFRCDPISEHNRLYWYRQTLGQGPEFLTYFQNEAQLEKSRLLSDRFSAERPKGSFSTLEIQRTEQGDSAMYLCASSLVRGIEAFFGQGTRLTVV
Turning to B4, the binding result is listed as “no recognition” in test [2] and “recognises” in test [3].

B5: TCR_4 (TCR, V domains shown)
Valpha: GENVEQHPSTLSVQEGDSAVIKCTYSDSASNYFPWYKQELGKGPQLIIDIRSNVGEKKDQRIAVTLNKTAKHFSLHITETQPEDSAVYFCAGRGKLTFGTGTRLTIIP
Vbeta: DTGVSQNPRHKITKRGQNVTFRCDPISEHNRLYWYRQTLGQGPEFLTYFQNEAQLEKSRLLSDRFSAERPKGSFSTLEIQRTEQGDSAMYLCASSLVRDEKLFFGSGTQLSVL
B5: the binding result in test [2] is recorded as “no recognition”; in test [3], “recognises”.

B6: TCR_6 (TCR, V domains shown)
Valpha: GEDVEQSLFLSVREGDSSVINCTYTDSSSTYLYWYKQEPGAGLQLLTYIFSNMDMKQDQRLTVLLNKKDKHLSLRIADTQTGDSAIYFCAEKWIIFGKGTRLHILP
Vbeta: DTGVSQNPRHKITKRGQNVTFRCDPISEHNRLYWYRQTLGQGPEFLTYFQNEAQLEKSRLLSDRFSAERPKGSFSTLEIQRTEQGDSAMYLCASSLTTPDGYTFGSGTRLTVV
B6: the binding result in test [5] is given as “recognises”; in test [2], “no recognition”.

B7: TCR_2, P01849 1-136 (TCR, not shown: a dimerising Fc or GST)
TCR alpha: GENVEQHPSTLSVQEGDSAVIKCTYSDSASNYFPWYKQELGKGPQLIIDIRSNVGEKKDQRIAVTLNKTAKHFSLHITETQPEDSAVYFCAAHTPGYSTLTFGKGTMLLVSPDIQNPEPAVYQLKDPRSQDSTLCLFTDFDSQINVPKTMESGTFITDKTVLDMKAMDSKSNGAIAWSNQTSFTCQDIFKETNATYPSSDVPCDATLTEKSFETDMNLNFQNLSVMGLRILLLKVAGFNLLMTLRLWSS
TCR beta: DTGVSQNPRHKITKRGQNVTFRCDPISEHNRLYWYRQTLGQGPEFLTYFQNEAQLEKSRLLSDRFSAERPKGSFSTLEIQRTEQGDSAMYLCASSPRAGGETQYFGPGTRLLVLE
The molecule B7 returned a peptide concentration needed for recognition (IFN-γ release), relative to HA-1^H in test [4] of over 10000 times.

B8: TCR_3, P01849 1-136 (TCR, not shown: a dimerising Fc or GST)
TCR alpha: SQQGEEDPQALSIQEGENATMNCSYKTSINNLQWYRQNSGRGLVHLILIRSNEREKHSGRLRVTLDTSKKSSSLLITASRAADTASYFCATGDQTGANNLFFGTGTRLTVIPYIQNPEPAVYQLKDPRSQDSTLCLFTDFDSQINVPKTMESGTFITDKTVLDMKAMDSKSNGAIAWSNQTSFTCQDIFKETNATYPSSDVPCDATLTEKSFETDMNLNFQNLSVMGLRILLLKVAGFNLLMTLRLWSS
TCR beta: DTGVSQNPRHKITKRGQNVTFRCDPISEHNRLYWYRQTLGQGPEFLTYFQNEAQLEKSRLLSDRFSAERPKGSFSTLEIQRTEQGDSAMYLCASSLTRTEKLFFGSGTQLSVLE
Turning to B8, the peptide concentration needed for recognition (IFN-γ release), relative to HA-1^H in test [4] was over 10000 times.

B9: TCR_5, P01849 1-136 (TCR, not shown: a dimerising Fc or GST)
TCR alpha: TQLLEQSPQFLSIQEGENLTVYCNSSSVFSSLQWYRQEPGEGPVLLVTVVTGGEVKKLKRLTFQFGDARKDSSLHITAAQTGDTGLYLCAGAGNNDMRFGAGTRLTVKPNIQNPEPAVYQLKDPRSQDSTLCLFTDFDSQINVPKTMESGTFITDKTVLDMKAMDSKSNGAIAWSNQTSFTCQDIFKETNATYPSSDVPCDATLTEKSFETDMNLNFQNLSVMGLRILLLKVAGFNLLMTLRLWSS
TCR beta: DTGVSQNPRHKITKRGQNVTFRCDPISEHNRLYWYRQTLGQGPEFLTYFQNEAQLEKSRLLSDRFSAERPKGSFSTLEIQRTEQGDSAMYLCASSLVRGIEAFFGQGTRLTVVE
The molecule B9 showed a peptide concentration needed for recognition (IFN-γ release), relative to HA-1^H in test [4] of over 10000 times.

B10: TCR_4, P01849 1-136 (TCR, not shown: a dimerising Fc or GST)
TCR alpha: GENVEQHPSTLSVQEGDSAVIKCTYSDSASNYFPWYKQELGKGPQLIIDIRSNVGEKKDQRIAVTLNKTAKHFSLHITETQPEDSAVYFCAGRGKLTFGTGTRLTIIPNIQNPEPAVYQLKDPRSQDSTLCLFTDFDSQINVPKTMESGTFITDKTVLDMKAMDSKSNGAIAWSNQTSFTCQDIFKETNATYPSSDVPCDATLTEKSFETDMNLNFQNLSVMGLRILLLKVAGFNLLMTLRLWSS
TCR beta: DTGVSQNPRHKITKRGQNVTFRCDPISEHNRLYWYRQTLGQGPEFLTYFQNEAQLEKSRLLSDRFSAERPKGSFSTLEIQRTEQGDSAMYLCASSLVRDEKLFFGSGTQLSVLE
For B10, the peptide concentration needed for recognition (IFN-γ release), relative to HA-1^H in test [4] is over 10000 times.

B11: TCR_6, P01849 1-136 (TCR, not shown: a dimerising Fc or GST)
TCR alpha: RGEDVEQSLFLSVREGDSSVINCTYTDSSSTYLYWYKQEPGAGLQLLTYIFSNMDMKQDQRLTVLLNKKDKHLSLRIADTQTGDSAIYFCAEKWIIFGKGTRLHILPNIQNPEPAVYQLKDPRSQDSTLCLFTDFDSQINVPKTMESGTFITDKTVLDMKAMDSKSNGAIAWSNQTSFTCQDIFKETNATYPSSDVPCDATLTEKSFETDMNLNFQNLSVMGLRILLLKVAGFNLLMTLRLWSS
TCR beta: DTGVSQNPRHKITKRGQNVTFRCDPISEHNRLYWYRQTLGQGPEFLTYFQNEAQLEKSRLLSDRFSAERPKGSFSTLEIQRTEQGDSAMYLCASSLTTPDGYTFGSGTRLTVVE
Take B11: the peptide concentration needed for recognition (IFN-γ release), relative to HA-1^H in test [4] is over 10000 times.

B12: TCR_1 (TCR, V domains shown)
Valpha: GENVEQHPSTLSVQEGDSAVIKCTYSDSASNYFPWYKQELGKGPQLIIDIRSNVGEKKDQRIAVTLNKTAKHFSLHITETQPEDSAVYFCAASDLNFGKGTSLLVTP
Vbeta: DTGVSQNPRHKITKRGQNVTFRCDPISEHNRLYWYRQTLGQGPEFLTYFQNEAQLEKSRLLSDRFSAERPKGSFSTLEIQRTEQGDSAMYLCASSLVSRVDGYTFGSGTRLTVV
With B12, the binding result in test [2] was “no recognition”; in test [3], “recognises”.
